US20060263345A1, “Butyrylcholinesterase variant polypeptides with increased catalytic efficiency and methods of use” (priority 2003, published 2006)

Experiment: microtiter isotope tracer [3H]-cocaine hydrolysis assay of immobilized butyrylcholinesterase variants
Type: biochemical
Conditions: for cocaine hydrolysis activity compared to butyrylcholinesterase (in words): compared to human butyrylcholinesterase; for increase in cocaine hydrolysis activity relative to butyrylcholinesterase: compared to human butyrylcholinesterase SEQ ID NO: 44, approximate values; for Relative Activity of butyrylcholinesterase variants (WT = 1) with enhanced cocaine hydrolase activity: relative to wild-type = 1, catalytic efficiency (Vmax/Km), [3H]-cocaine microtiter assay
Text: At the conclusion of the isotope tracer assay, an aliquot of the reaction mix is acidified in order to take advantage of the solubility difference between the product and the substrate at pH 3.0. […] Prospect, Ill.) while [3H]-cocaine is not.
The supernatants isolated from each of the butyrylcholinesterase variant library clones contains variable butyrylcholinesterase enzyme concentrations.
At least three approaches are used to either increase the assay sensitivity or the assay signal.
Km values for (−)-cocaine are determined at 37° C. Vmax and Km values are calculated using Sigma Plot (Jandel Scientific, San Rafael, Calif.). The number of active sites of butyrylcholinesterase is determined by the method of residual activity using echothiopate iodide or diisopropyl fluorophosphates as titrants, as described previously by Masson et al., Biochemistry 36: 2266-2277 (1997). […] Purified human butyrylcholinesterase is used as the standard for the ELISA quantitation assay. The catalytic rate constant, kcat, is calculated by dividing Vmax by the concentration of active sites.

Molecule	cocaine hydrolysis activity compared to butyrylcholinesterase (in words)	increase in cocaine hydrolysis activity relative to butyrylcholinesterase	Relative Activity of butyrylcholinesterase variants (WT = 1) with enhanced cocaine hydrolase activity
A328W/S287G/A199S (protein, Butyrylcholinesterase variant) EDDIIIATKNGKVRGMNLTVFGGTVTAFLGIPYAQPPLGRLRFKKPQSLTKWSDIWNATKYANSCCQNIDQSFPGFHGSEMWNPNTDLSEDCLYLNVWIPAPKPKNATVLIWIYGGGFQTGTSSLHVYDGKFLARVERVIVVSMNYRVGALGFLALPGNPEAPGNMGLFDQQLALQWVQKNIAAFGGNPKSVTLFGESSGAASVSLHLLSPGSHSLFTRAILQSGSFNAPWAVTSLYEARNRTLNLAKLTGCSRENETEIIKCLRNKDPQEILLNEAFVVPYGTPLGVNFGPTVDGDFLTDMPDILLELGQFKKTQILVGVNKDEGTWFLVYGAPGFSKDNNSIITRKEFQEGLKIFFPGVSEFGKESILFHYTDWVDDQRPENYREALGDVVGDYNFICPALEFTKKFSEWGNNAFFYYFEHRSSKLPWPEWMGVMHGYEIEFVFGLPLERRDNYTKAEEILSRSIVKRWANFAKYGNPNETQNNSTSWPVFKSTEQKYLTLNTESTRIMTKLRAQQCRFWTSFFPKVLEMTGNIDEAEWEWKAGFHRWNNYMMDWKNQFNDYTSKKESCVGL	enhanced cocaine hydrolase activity	ninety-seven	97
S287G (protein, UniProt P06276 29-602, looked up, variant S287G) Cholinesterase: EDDIIIATKNGKVRGMNLTVFGGTVTAFLGIPYAQPPLGRLRFKKPQSLTKWSDIWNATKYANSCCQNIDQSFPGFHGSEMWNPNTDLSEDCLYLNVWIPAPKPKNATVLIWIYGGGFQTGTSSLHVYDGKFLARVERVIVVSMNYRVGALGFLALPGNPEAPGNMGLFDQQLALQWVQKNIAAFGGNPKSVTLFGESAGAASVSLHLLSPGSHSLFTRAILQSGSFNAPWAVTSLYEARNRTLNLAKLTGCSRENETEIIKCLRNKDPQEILLNEAFVVPYGTPLGVNFGPTVDGDFLTDMPDILLELGQFKKTQILVGVNKDEGTAFLVYGAPGFSKDNNSIITRKEFQEGLKIFFPGVSEFGKESILFHYTDWVDDQRPENYREALGDVVGDYNFICPALEFTKKFSEWGNNAFFYYFEHRSSKLPWPEWMGVMHGYEIEFVFGLPLERRDNYTKAEEILSRSIVKRWANFAKYGNPNETQNNSTSWPVFKSTEQKYLTLNTESTRIMTKLRAQQCRFWTSFFPKVLEMTGNIDEAEWEWKAGFHRWNNYMMDWKNQFNDYTSKKESCVGL	–	–	4.1
P285Q (protein, UniProt P06276 29-602, looked up, variant P285Q) Cholinesterase: EDDIIIATKNGKVRGMNLTVFGGTVTAFLGIPYAQPPLGRLRFKKPQSLTKWSDIWNATKYANSCCQNIDQSFPGFHGSEMWNPNTDLSEDCLYLNVWIPAPKPKNATVLIWIYGGGFQTGTSSLHVYDGKFLARVERVIVVSMNYRVGALGFLALPGNPEAPGNMGLFDQQLALQWVQKNIAAFGGNPKSVTLFGESAGAASVSLHLLSPGSHSLFTRAILQSGSFNAPWAVTSLYEARNRTLNLAKLTGCSRENETEIIKCLRNKDPQEILLNEAFVVPYGTQLSVNFGPTVDGDFLTDMPDILLELGQFKKTQILVGVNKDEGTAFLVYGAPGFSKDNNSIITRKEFQEGLKIFFPGVSEFGKESILFHYTDWVDDQRPENYREALGDVVGDYNFICPALEFTKKFSEWGNNAFFYYFEHRSSKLPWPEWMGVMHGYEIEFVFGLPLERRDNYTKAEEILSRSIVKRWANFAKYGNPNETQNNSTSWPVFKSTEQKYLTLNTESTRIMTKLRAQQCRFWTSFFPKVLEMTGNIDEAEWEWKAGFHRWNNYMMDWKNQFNDYTSKKESCVGL	–	–	2.4
P285S (protein, UniProt P06276 29-602, looked up, variant P285S) Cholinesterase: EDDIIIATKNGKVRGMNLTVFGGTVTAFLGIPYAQPPLGRLRFKKPQSLTKWSDIWNATKYANSCCQNIDQSFPGFHGSEMWNPNTDLSEDCLYLNVWIPAPKPKNATVLIWIYGGGFQTGTSSLHVYDGKFLARVERVIVVSMNYRVGALGFLALPGNPEAPGNMGLFDQQLALQWVQKNIAAFGGNPKSVTLFGESAGAASVSLHLLSPGSHSLFTRAILQSGSFNAPWAVTSLYEARNRTLNLAKLTGCSRENETEIIKCLRNKDPQEILLNEAFVVPYGTSLSVNFGPTVDGDFLTDMPDILLELGQFKKTQILVGVNKDEGTAFLVYGAPGFSKDNNSIITRKEFQEGLKIFFPGVSEFGKESILFHYTDWVDDQRPENYREALGDVVGDYNFICPALEFTKKFSEWGNNAFFYYFEHRSSKLPWPEWMGVMHGYEIEFVFGLPLERRDNYTKAEEILSRSIVKRWANFAKYGNPNETQNNSTSWPVFKSTEQKYLTLNTESTRIMTKLRAQQCRFWTSFFPKVLEMTGNIDEAEWEWKAGFHRWNNYMMDWKNQFNDYTSKKESCVGL	–	–	1.9
A328W/F227A (protein, Butyrylcholinesterase variant) EDDIIIATKNGKVRGMNLTVFGGTVTAFLGIPYAQPPLGRLRFKKPQSLTKWSDIWNATKYANSCCQNIDQSFPGFHGSEMWNPNTDLSEDCLYLNVWIPAPKPKNATVLIWIYGGGFQTGTSSLHVYDGKFLARVERVIVVSMNYRVGALGFLALPGNPEAPGNMGLFDQQLALQWVQKNIAAFGGNPKSVTLFGESAGAASVSLHLLSPGSHSLFTRAILQSGSANAPWAVTSLYEARNRTLNLAKLTGCSRENETEIIKCLRNKDPQEILLNEAFVVPYGTPLSVNFGPTVDGDFLTDMPDILLELGQFKKTQILVGVNKDEGTWFLVYGAPGFSKDNNSIITRKEFQEGLKIFFPGVSEFGKESILFHYTDWVDDQRPENYREALGDVVGDYNFICPALEFTKKFSEWGNNAFFYYFEHRSSKLPWPEWMGVMHGYEIEFVFGLPLERRDNYTKAEEILSRSIVKRWANFAKYGNPNETQNNSTSWPVFKSTEQKYLTLNTESTRIMTKLRAQQCRFWTSFFPKVLEMTGNIDEAEWEWKAGFHRWNNYMMDWKNQFNDYTSKKESCVGL	enhanced cocaine hydrolase activity	sixty-eight	68
A328W/S287G/F227A (protein, Butyrylcholinesterase variant) EDDIIIATKNGKVRGMNLTVFGGTVTAFLGIPYAQPPLGRLRFKKPQSLTKWSDIWNATKYANSCCQNIDQSFPGFHGSEMWNPNTDLSEDCLYLNVWIPAPKPKNATVLIWIYGGGFQTGTSSLHVYDGKFLARVERVIVVSMNYRVGALGFLALPGNPEAPGNMGLFDQQLALQWVQKNIAAFGGNPKSVTLFGESAGAASVSLHLLSPGSHSLFTRAILQSGSANAPWAVTSLYEARNRTLNLAKLTGCSRENETEIIKCLRNKDPQEILLNEAFVVPYGTPLGVNFGPTVDGDFLTDMPDILLELGQFKKTQILVGVNKDEGTWFLVYGAPGFSKDNNSIITRKEFQEGLKIFFPGVSEFGKESILFHYTDWVDDQRPENYREALGDVVGDYNFICPALEFTKKFSEWGNNAFFYYFEHRSSKLPWPEWMGVMHGYEIEFVFGLPLERRDNYTKAEEILSRSIVKRWANFAKYGNPNETQNNSTSWPVFKSTEQKYLTLNTESTRIMTKLRAQQCRFWTSFFPKVLEMTGNIDEAEWEWKAGFHRWNNYMMDWKNQFNDYTSKKESCVGL	enhanced cocaine hydrolase activity	ninety-one	91
A328W (protein, UniProt P06276 29-602, looked up, variant A328W) Cholinesterase: EDDIIIATKNGKVRGMNLTVFGGTVTAFLGIPYAQPPLGRLRFKKPQSLTKWSDIWNATKYANSCCQNIDQSFPGFHGSEMWNPNTDLSEDCLYLNVWIPAPKPKNATVLIWIYGGGFQTGTSSLHVYDGKFLARVERVIVVSMNYRVGALGFLALPGNPEAPGNMGLFDQQLALQWVQKNIAAFGGNPKSVTLFGESAGAASVSLHLLSPGSHSLFTRAILQSGSFNAPWAVTSLYEARNRTLNLAKLTGCSRENETEIIKCLRNKDPQEILLNEAFVVPYGTPLSVNFGPTVDGDFLTDMPDILLELGQFKKTQILVGVNKDEGTWFLVYGAPGFSKDNNSIITRKEFQEGLKIFFPGVSEFGKESILFHYTDWVDDQRPENYREALGDVVGDYNFICPALEFTKKFSEWGNNAFFYYFEHRSSKLPWPEWMGVMHGYEIEFVFGLPLERRDNYTKAEEILSRSIVKRWANFAKYGNPNETQNNSTSWPVFKSTEQKYLTLNTESTRIMTKLRAQQCRFWTSFFPKVLEMTGNIDEAEWEWKAGFHRWNNYMMDWKNQFNDYTSKKESCVGL	–	–	7
